According to patent publication US20240238445A1, “INHIBITORS AND USES THEREOF” (NEURACLE SCIENCE CO., LTD., priority 2021, published 2024):

B1: LRRC4B (453-576): LRRC4B ectodomain fragment, amino acids 453-576 of SEQ ID NO: 2; FLAG-tagged or hFc-fused (protein)
chain: VSAVDPVAAGGTGSGGGGPGGSGGVGGGSGGYTYFTTVTVETLETQPGEEALQPRGTEKEPPGPTTDGVWGGGRPGDAAGPASSSTTAPAPRSSRPTEKAFTVPITDVTENALKDLDDVMKTTK
modifications: FLAG tag or human Fc
notes: FLAG-tagged or hFc-fused

Tests used:
[1] = molecular target: binding of FAM19A5 protein to full-length ectodomain of LRRC4C protein (Homo sapiens, UniProt Q7Z5A7); test: Competitive inhibition assay, plate coated with full-length ectodomain of LRRC4C; conditions: FAM19A5 5 ng/mL; 100 nM/well coat
Method: (§1) As described in Example 3, there appeared to be much similarity in the binding domains of the different members of the LRRC4 family. […] Then, recombinant FAM19A5 protein (5 ng/mL) was added in combination with one of the following: (i) LRRC4B (484-576) protein fragment, (ii) LRRC4B (453-576, AA) protein fragment, and (iii) synthetic FB-20 peptide. The plates were incubated at 37° C., and then, the amount of FAM19A5 protein bound to the coated LRRC4, LRRC4B, or LRRC4C proteins was measured using anti-FAM19A5 (1-65) antibody.

[2] = molecular target: binding of FAM19A5 protein to full-length ectodomain of LRRC4 protein (Homo sapiens, UniProt Q7Z5A7); test: Competitive inhibition assay, plate coated with full-length ectodomain of LRRC4; conditions: FAM19A5 5 ng/mL; 100 nM/well coat
Method: as §1

[3] = test system: APP/PS1 mice (Alzheimer mouse model); test: Synaptic formation in hippocampal CA1 and CA3 of APP/PS1 mice; assay type: in vivo; conditions: 30 mg/kg intravenous, four consecutive weeks, compared to mutant LRRC4B protein fragment
Method: FIGS. 16A, 16B, and 16C show the ability of LRRC4B peptide fragment (amino acid residues 453-576 of SEQ ID NO: 2; “WT”) (i.e., SEQ ID NO: 7) to promote synaptic formation in the hippocampal CA1 of APP/PS1 mice. As further described in Example 8, APP/PS1 mice were treated with the LRRC4B peptide fragment (30 mg/kg; intravenous administration) for four consecutive weeks, and then synaptic formation was assessed by fluorescence microscopy using antibodies against SYP and PSD95. Control animals received no treatment (“Cont”) or the mutant LRRC4B peptide fragment […] (i.e., comprising alanine substitutions at positions 488 and 489 of SEQ ID NO: 2; SEQ ID NO: 16). FIG. 16A provides representative fluorescent photomicrographs. FIGS. 16B and 16C show the SYP and PSD95 intensity, respectively.
FIGS. 17A, 17B, and 17C show the ability of LRRC4B peptide fragment (amino acid residues 453-576 of SEQ ID NO: 2; “WT”; SEQ ID NO: 7) to promote synaptic formation in the hippocampal CA3 of APP/PS1 mice. The animals were treated and analyzed as described in FIGS. 16A-16C. FIG. 17A provides representative fluorescent photomicrographs. FIGS. 17B and 17C show the SYP and PSD95 intensity, respectively.
Additionally, to confirm the above effect on neurite outgrowth in vivo, APP/PS1 mice (Alzheimer mouse model) were used. […] Hong et al., Science 352(6286): 712-716 (May 2016). […]

Sequence of binding of FAM19A5 protein to full-length ectodomain of LRRC4C protein (Q7Z5A7 44-132): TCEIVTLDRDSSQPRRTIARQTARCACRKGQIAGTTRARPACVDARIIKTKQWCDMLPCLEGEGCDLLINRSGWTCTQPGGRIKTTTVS
Sequence of binding of FAM19A5 protein to full-length ectodomain of LRRC4 protein (Q7Z5A7 44-132): as above

| Molecule | inhibition of FAM19A5 binding to coated LRRC4C protein (in words) [1] | inhibition of FAM19A5 binding to coated LRRC4 protein (in words) [2] | SYP and PSD95 immunoreactivities in CA1 and CA3 [3] |
| --- | --- | --- | --- |
| GYTYFTTVTVETLETQPGEE [FB-20] | able to inhibit FAM19A5 protein from binding | able to inhibit FAM19A5 protein from binding |  |
| B1 |  |  | increased SYP and PSD95 immunoreactivities in CA1 and CA3 |
